According to patent publication US20230050380A1 (CHIOME BIOSCIENCE, published 2023):

B1: mh14A091 (antibody, human IgG1, kappa, V domains shown)
VH: EVQLQESGAELARPGASVKLSCKASGYTFTSYWMQWVKQRPGQGLEWIGAIYPGDGDTRYTQKFKGKATLTADKSSSTAYMQLSSLASEDSAVYYCAGYDAPWFAYWGQGTLVTVSS
VL: NIVLTQSPASLAVSLGQRATISCRASESVDSYGNSFMHWYQQKPGQPPKLLIYLASNLESGVPARFSGSGSRTDFTLTIDPVEADDAATYYCQQNNEDPWTFGGGTKLEIKR
notes: mouse-human chimeric antibody of 14A091, human IgG1/kappa constant regions
B2: CUB4 antibody (antibody, human IgG1, kappa, V domains shown)
VH: EVQLVESGGGLVQPGGSLRLSCAASGFTFNSYGMSWVRQAPGKGLEWVATISSGGSYKYYVDSVKGRFTISRDNAKNSLYLQMNSLRAEDTAVYYCARHPDYDGVWFAYWGQGTLVTVSS
VL: EIVLTQSPATLSLSPGERATMSCSVSSSVFYLHWYQQKPGQAPRLWIYDTSKLASGIPARFSGSGSGTDFTLTISSLEPEDFAVYYCQQWNSNPPTFGGGTKVEIKR
notes: also called CUB4-biotin (biotinylated form)
B3: mh14A055 (antibody, human IgG1, kappa, V domains shown)
VH: EVQLQESGPGLVAPSQSLSITCTVSGFSLTGYGVNWVRQPPGKGLEWLGMIWGDGSTDYNSALKSRLSISKDNSKSQVFLKMNSLQTDDTARYYCARDGYDGAMDYWGQGTSVTVSS
VL: not shown
notes: mouse-human chimeric antibody of 14A055, human IgG1/kappa constant regions

Columns and labels:
[1] = target: T1, crab-eating macaque CDCP1 with N-terminal c-Myc tag (expression vector GS02), on crab-eating macaque … (crab-eating macaque (Macaca …, UniProt Q9H5V8 30-836 (human entry))); test: flow cytometry on crab-eating macaque CDCP1-expressing CHO-K1 cells
T1 chain: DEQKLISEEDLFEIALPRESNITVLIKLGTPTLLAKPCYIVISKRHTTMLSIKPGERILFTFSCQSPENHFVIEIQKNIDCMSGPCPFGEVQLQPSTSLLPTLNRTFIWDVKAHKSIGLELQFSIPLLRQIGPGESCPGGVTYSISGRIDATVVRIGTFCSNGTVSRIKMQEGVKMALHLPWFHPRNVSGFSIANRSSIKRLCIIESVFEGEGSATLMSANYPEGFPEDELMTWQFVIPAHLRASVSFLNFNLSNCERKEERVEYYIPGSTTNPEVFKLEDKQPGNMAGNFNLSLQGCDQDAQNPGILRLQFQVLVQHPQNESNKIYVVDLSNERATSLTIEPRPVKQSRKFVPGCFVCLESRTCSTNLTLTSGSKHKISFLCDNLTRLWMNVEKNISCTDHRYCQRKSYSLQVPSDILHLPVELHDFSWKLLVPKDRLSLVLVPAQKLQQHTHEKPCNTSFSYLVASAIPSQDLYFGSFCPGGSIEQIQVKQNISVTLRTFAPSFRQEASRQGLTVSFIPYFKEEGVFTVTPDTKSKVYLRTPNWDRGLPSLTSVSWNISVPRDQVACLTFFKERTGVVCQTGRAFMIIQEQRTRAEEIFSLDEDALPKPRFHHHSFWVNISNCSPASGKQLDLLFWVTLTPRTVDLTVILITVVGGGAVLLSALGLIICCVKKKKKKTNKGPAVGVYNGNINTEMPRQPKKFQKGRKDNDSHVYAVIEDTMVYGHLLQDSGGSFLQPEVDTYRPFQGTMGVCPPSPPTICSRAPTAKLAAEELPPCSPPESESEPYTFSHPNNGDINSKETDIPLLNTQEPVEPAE
Source text: The hCDCP1-expressing CHO-K1 cells and the crab-eating macaque CDCP1-expressing CHO-K1 cells were exfoliated and dispersed using 0.25% trypsin/EDTA (Nacalai Tesque, Inc.), and were then reacted with various concentrations of individual mouse-human chimeric antibodies, namely, mh12A041HCori/LCori, mh14A025HCori/LCori, mh14A043HCori/LCori, mh14A055, mh14A063HCori/LCori, and mh14A091. Thereafter, the binding property of the antibodies was observed by flow cytometry (FIG. 9). As a result, these 6 antibodies all reacted with the crab-eating macaque CDCP1, and in particular, the 5 antibodies other than mh14A055 reacted with both the human CDCP1 and the crab-eating macaque CDCP1 at the same levels.

[2] = target: T2, full-length hCDCP1 with N-terminal c-Myc tag (expression vector GS01), on Ba/F3-hCDCP1 cells or … (human, UniProt Q9H5V8 30-836); test: flow cytometry on untreated Ba/F3-hCDCP1 cells (comparison of FIG. 8)
T2 construct: also called human CDCP1; hCDCP1 forced expression cells
T2 sequence: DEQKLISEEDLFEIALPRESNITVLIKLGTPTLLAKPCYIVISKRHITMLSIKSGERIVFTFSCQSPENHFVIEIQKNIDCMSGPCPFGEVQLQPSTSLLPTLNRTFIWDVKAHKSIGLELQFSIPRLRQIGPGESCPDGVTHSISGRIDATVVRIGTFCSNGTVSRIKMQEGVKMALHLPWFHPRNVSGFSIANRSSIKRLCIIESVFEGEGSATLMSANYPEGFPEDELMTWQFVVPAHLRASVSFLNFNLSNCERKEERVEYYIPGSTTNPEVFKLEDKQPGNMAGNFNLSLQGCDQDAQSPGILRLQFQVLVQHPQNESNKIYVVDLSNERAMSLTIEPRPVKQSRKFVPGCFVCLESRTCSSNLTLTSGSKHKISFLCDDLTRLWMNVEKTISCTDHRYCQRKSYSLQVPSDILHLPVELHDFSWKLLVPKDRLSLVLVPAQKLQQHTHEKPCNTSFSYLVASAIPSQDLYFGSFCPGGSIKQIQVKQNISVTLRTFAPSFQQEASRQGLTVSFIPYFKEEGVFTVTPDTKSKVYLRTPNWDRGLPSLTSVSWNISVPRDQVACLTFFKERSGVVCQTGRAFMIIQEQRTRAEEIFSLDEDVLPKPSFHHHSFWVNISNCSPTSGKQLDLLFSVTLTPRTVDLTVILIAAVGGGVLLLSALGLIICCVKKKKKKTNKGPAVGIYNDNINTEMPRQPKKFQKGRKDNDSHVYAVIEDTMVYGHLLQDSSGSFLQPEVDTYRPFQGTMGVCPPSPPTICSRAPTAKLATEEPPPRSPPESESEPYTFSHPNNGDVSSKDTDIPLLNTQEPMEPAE
Procedure: In order to investigate whether the obtained anti-hCDCP1 mouse-human chimeric antibodies bind to the N-terminal side of the serine protease cleavage site of the hCDCP1 molecules or bind to the transmembrane region side, […] the technique mentioned in the previous section. The following anti-hCDCP1 mouse-human chimeric antibody clones were evaluated: [0259] mh12A041HCori/LCori, mh14A025HCori/LCori, mh14A043HCori/LCori, mh14A055, mh14A063HCori/LCori, and mh14A091.
[…] It was confirmed by the same Western blotting as that mentioned in the previous section that the full-length hCDCP1 disappeared and only the cleaved hCDCP1 was present in the above-treated Ba/F3-CDCP1 cells. With respect to these cells, a dilution series of anti-hCDCP1 mouse-human chimeric antibodies from 5 μg/mL to 5 ng/mL was prepared, and was then reacted at 4° C. for 30 minutes. As a negative control, a similar dilution series of anti-RS virus antibodies described in the later section was prepared as a non-specific human IgG, and was then reacted at 4° C. for 30 minutes.

[3] = target: T3, hCDCP1 expressed by PC3 cells and other human cancer cell lines (endogenous) (human, UniProt Q9H5V8 30-836); test: cancer cells that express hCDCP1; method not given
T3 construct: Endogenous protein on cell lines; PC3 is said to express also the cleaved form; also called human CDCP1
T3 sequence: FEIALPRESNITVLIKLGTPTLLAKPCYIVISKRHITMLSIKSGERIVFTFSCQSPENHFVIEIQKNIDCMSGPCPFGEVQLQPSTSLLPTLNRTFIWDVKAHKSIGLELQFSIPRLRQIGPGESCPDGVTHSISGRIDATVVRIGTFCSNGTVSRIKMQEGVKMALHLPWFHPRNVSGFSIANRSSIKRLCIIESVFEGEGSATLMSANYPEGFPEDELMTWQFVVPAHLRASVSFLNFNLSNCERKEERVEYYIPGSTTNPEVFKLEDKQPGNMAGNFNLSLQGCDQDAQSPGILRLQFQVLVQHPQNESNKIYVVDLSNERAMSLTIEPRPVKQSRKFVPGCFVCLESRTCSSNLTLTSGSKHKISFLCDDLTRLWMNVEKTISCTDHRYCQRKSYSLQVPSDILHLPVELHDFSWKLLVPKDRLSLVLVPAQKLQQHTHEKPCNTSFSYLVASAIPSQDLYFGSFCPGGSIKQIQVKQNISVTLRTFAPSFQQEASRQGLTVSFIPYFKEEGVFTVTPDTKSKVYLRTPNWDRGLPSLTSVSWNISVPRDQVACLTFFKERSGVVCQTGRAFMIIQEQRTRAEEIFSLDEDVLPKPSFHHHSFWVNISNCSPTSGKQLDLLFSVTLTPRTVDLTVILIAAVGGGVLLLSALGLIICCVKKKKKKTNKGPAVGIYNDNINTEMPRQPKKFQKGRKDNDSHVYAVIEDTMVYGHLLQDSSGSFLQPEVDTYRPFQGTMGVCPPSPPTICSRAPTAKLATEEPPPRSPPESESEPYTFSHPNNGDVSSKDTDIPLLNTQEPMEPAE

Binder | binding result [1] | binding result [2] | binding result [3]
B1 | binds | binds | –
B2 | – | – | binds
B3 | binds | binds | –
